Read-outs that look alike come from different tables or passages of the source.
Tests used:
[1] = target: human recombinant RetGC1 (retinal membrane guanylyl cyclase 1) (human) (UniProt Q02846)
[2] = target: human recombinant RetGC1 (retinal membrane guanylyl cyclase 1) (human) (UniProt Q02846); remark: listed apart in the source
[3] = target: human recombinant RetGC1 (retinal membrane guanylyl cyclase 1) (human) (UniProt Q02846); remark: listed apart in the source
[4] = target: human recombinant RetGC1 (retinal membrane guanylyl cyclase 1) (human) (UniProt Q02846); remark: listed apart in the source

Sequence of UniProt Q02846 (Q02846 52-1103): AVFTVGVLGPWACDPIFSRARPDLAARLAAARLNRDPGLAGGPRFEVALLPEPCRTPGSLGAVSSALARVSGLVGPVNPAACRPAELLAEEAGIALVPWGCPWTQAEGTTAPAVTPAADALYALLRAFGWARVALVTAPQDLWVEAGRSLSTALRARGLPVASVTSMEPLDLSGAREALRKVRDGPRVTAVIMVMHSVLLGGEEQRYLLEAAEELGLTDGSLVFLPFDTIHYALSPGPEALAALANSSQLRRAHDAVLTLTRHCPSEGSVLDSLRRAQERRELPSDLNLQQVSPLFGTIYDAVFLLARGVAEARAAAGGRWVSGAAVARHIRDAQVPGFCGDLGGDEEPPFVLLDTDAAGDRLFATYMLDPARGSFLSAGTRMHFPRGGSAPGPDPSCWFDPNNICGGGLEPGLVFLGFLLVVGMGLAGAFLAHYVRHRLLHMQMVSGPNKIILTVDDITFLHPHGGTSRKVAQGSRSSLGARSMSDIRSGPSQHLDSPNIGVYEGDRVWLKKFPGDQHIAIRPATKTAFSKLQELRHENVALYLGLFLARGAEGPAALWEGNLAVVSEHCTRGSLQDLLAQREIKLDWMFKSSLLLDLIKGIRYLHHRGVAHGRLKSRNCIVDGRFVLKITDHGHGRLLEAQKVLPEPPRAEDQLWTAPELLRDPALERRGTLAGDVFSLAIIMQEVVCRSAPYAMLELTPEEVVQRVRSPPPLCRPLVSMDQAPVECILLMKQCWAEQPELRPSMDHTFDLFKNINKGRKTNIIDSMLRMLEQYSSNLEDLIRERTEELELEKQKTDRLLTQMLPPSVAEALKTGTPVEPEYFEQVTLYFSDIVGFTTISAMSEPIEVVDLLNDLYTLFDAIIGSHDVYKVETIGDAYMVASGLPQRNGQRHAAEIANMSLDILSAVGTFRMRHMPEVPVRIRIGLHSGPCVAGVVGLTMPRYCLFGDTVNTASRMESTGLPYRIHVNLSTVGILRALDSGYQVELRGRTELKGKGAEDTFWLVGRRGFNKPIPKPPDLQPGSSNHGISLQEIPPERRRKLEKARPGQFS

Substance	RetGC1 activity left with 100 nM RD3, % of that without RD3 (1.5 uM GCAP1) [1] [%]	IC50 of inhibition of GCAP1-activated RetGC1 activity [2] [µM]	IC50 of inhibition of GCAP1-activated RetGC1 activity [3] [µM]	IC50 of inhibition of GCAP1-activated RetGC1 activity (empirical estimate) [4] [µM]
RD3 D59R (from UniProt Q7Z3Z2 1-195) (natural protein)	24.1	0.0266	–	–
RD3 E106K (from UniProt Q7Z3Z2 1-195) (natural protein)	17.5	0.0135	–	–
RD3 G94Y (from UniProt Q7Z3Z2 1-195) (natural protein)	22.5	0.0207	–	–
RD3 H89G (from UniProt Q7Z3Z2 1-195) (natural protein)	13.2	0.0106	–	–
RD3 L63R (from UniProt Q7Z3Z2 1-195) (natural protein)	82.8	0.882	–	–
RD3 P146ter (from UniProt Q7Z3Z2 1-145) (domain or fragment)	11.7	–	0.0034	–
RD3 Q102L (from UniProt Q7Z3Z2 1-195) (natural protein)	28.5	0.059	–	–
RD3 R99E (from UniProt Q7Z3Z2 1-195) (natural protein)	27.1	0.0355	–	–
RD3 R101A (from UniProt Q7Z3Z2 1-195) (natural protein)	48	0.261	–	–
RD3 R101E (from UniProt Q7Z3Z2 1-195) (natural protein)	37.9	0.135	–	–
RD3 S61Y (from UniProt Q7Z3Z2 1-195) (natural protein)	17.7	0.0118	–	–
RD3 S74R (from UniProt Q7Z3Z2 1-195) (natural protein)	15.5	0.0156	–	–
RD3 W6L/W9L (from UniProt Q7Z3Z2 1-195) (natural protein)	13.4	–	0.0045	–
RD3 W62A (from UniProt Q7Z3Z2 1-195) (natural protein)	49.7	0.253	–	–
RD3 W62A/L63R (from UniProt Q7Z3Z2 1-195) (natural protein)	–	–	–	> 10
RD3 Y60A (from UniProt Q7Z3Z2 1-195) (natural protein)	65.3	0.63	–	–
RD3 Y92A (from UniProt Q7Z3Z2 1-195) (natural protein)	13.3	0.0098	–	–
WT RD3 (retinal degeneration-3), bacterially expressed (from UniProt Q7Z3Z2 1-195) (natural protein)	11	0.0036	–	–

Source: paper PMC7397094
